Measurements reported in patent US20140057807A1.

target: human small ubiquitin-like modifier 1 (human) (UniProt P63165); assay: ratio of the apparent affinity for hSUMO1 to that for ySUMO in the titration phage ELISA of FIGS. 25A and 26A; group Moderate Specificity (10-100)

Specificity Factor	Binder
13.1	hS1MB-11 (designed binder) VSSVPTKLEVVAATPTSLLISWDASSSSVSNYAITYGETGGNSPVQEFTVPGSSSTATISGLSPGVDYTITVYAYYSYDDIFVADSPSSINYRT
52.5	hS1MB-23 (designed binder) VSSVPTKLEVVAATPTSLLISWDASSSSVSHYEITYGETGGNSPVQEFTVPGSSSTATISGLSPGVDYTITVYAYYSHDDIFYAFSPSSINYRT
12.3	hS1MB-3 (designed binder) VSSVPTKLEVVAATPTSLLISWDASSSSVSHYAITYGETGGNSPVQEFTVPGSSSTATISGLSPGVDYTITVYAYHSYDDIFLADSPSSINYRT

target: human small ubiquitin-like modifier 1 (human) (UniProt P63165); assay: SPR (Biacore 2000), monobody immobilised via His-tag on NTA surface, hSUMO1 flowed over it

Kd [nM]	Binder
2500	hS1MB-7 (designed binder) VSSVPTKLEVVAATPTSLLISWDASSSSVSYYEITYGETGGNSPVQEFTVPGSSSTATISGLSPGVDYTITVIAFYSHDDIYISDSPSSINYRT
519	hS1MB-3 (designed binder) VSSVPTKLEVVAATPTSLLISWDASSSSVSHYAITYGETGGNSPVQEFTVPGSSSTATISGLSPGVDYTITVYAYHSYDDIFLADSPSSINYRT

target: human small ubiquitin-like modifier 1 (human) (UniProt P63165); assay: ratio of the apparent affinity for hSUMO1 to that for ySUMO in the titration phage ELISA of FIGS. 25A and 26A; group High Specificity (>100)

Specificity Factor	Binder
> 100	hS1MB-18 (designed binder) VSSVPTKLEVVAATPTSLLISWDASSSSVSYYEITYGETGGNSPVQEFTVPGSSSTATISGLSPGVDYTITVFAYDSVEDIYVSYSPSSINYRT
> 100	hS1MB-7 (designed binder) VSSVPTKLEVVAATPTSLLISWDASSSSVSYYEITYGETGGNSPVQEFTVPGSSSTATISGLSPGVDYTITVIAFYSHDDIYISDSPSSINYRT
> 100	hS1MB-20 (designed binder) VSSVPTKLEVVAATPTSLLISWDASSSSVSHYSITYGETGGNSPVQEFTVPGSSSTATISGLSPGVDYTITVYAYDSIEDIYIADSPSSINYRT
> 100	hS1MB-16 (designed binder) VSSVPTKLEVVAATPTSLLISWDASSSSVSHYDITYGETGGNSPVQEFTVPGSSSTATISGLSPGVDYTITVYAYNSHDDIFIAYSPSSINYRT
> 100	hS1MB-17 (designed binder) VSSVPTKLEVVAATPTSLLISWDASSSSVSYYEITYGETGGNSPVQEFTVPGSSSTATISGLSPGVDYTITVSAYNSYDDIYYAVSPSSINYRT

target: human small ubiquitin-like modifier 1 (human) (UniProt P63165); assay: SPR (monobody on the chip via His-tag, target flowed); estimated Kd [Continued]

Kd [nM]	Binder
652	SEQ ID NO 87 (designed binder) VSSVPTKLEVVAATPTSLLISWDASSSSVSHYHITYGETGGNSPVQEFTVPGSSSTATISGLSPGVDYTITVYAFYSDDDLYFAFSPSSINYRT
284	SEQ ID NO 91 (designed binder) VSSVPTKLEVVAATPTSLLISWDASSSSVSHYEITYGETGGNSPVQEFTVPGSSSTATISGLSPGVDYTITVAAYHSYHDIFYAVSPSSINYRT
738	SEQ ID NO 95 (designed binder) VSSVPTKLEVVAATPTSLLISWDASSSSVSHYAITYGETGGNSPVQEFTVPGSSSTATISGLSPGVDYTITVFAYYSYDDIYYAYSPSSINYRT
145	SEQ ID NO 90 (designed binder) VSSVPTKLEVVAATPTSLLISWDASSSSVSHYEITYGETGGNSPVQEFTVPGSSSTATISGLSPGVDYTITVYAYYSHEDIFYAVSPSSINYRT
2500	SEQ ID NO 93 (designed binder) VSSVPTKLEVVAATPTSLLISWDASSSSVSYYEITYGETGGNSPVQEFTVPGSSSTATISGLSPGVDYTITVIAFYSHDDIYISDSPSSINYRT
3600	SEQ ID NO 94 (designed binder) VSSVPTKLEVVAATPTSLLISWDASSSSVSHYAITYGETGGNSPVQEFTVPGSSSTATISGLSPGVDYTITVYAYYSYDDLYVSDSPSSINYRT
2200	SEQ ID NO 96 (designed binder) VSSVPTKLEVVAATPTSLLISWDASSSSVSHYDITYGETGGNSPVQEFTVPGSSSTATISGLSPGVDYTITVHAYYSYDDIYVAISPSSINYRT
519	SEQ ID NO 89 (designed binder) VSSVPTKLEVVAATPTSLLISWDASSSSVSHYAITYGETGGNSPVQEFTVPGSSSTATISGLSPGVDYTITVYAYHSYDDIFLADSPSSINYRT
290	SEQ ID NO 88 (designed binder) VSSVPTKLEVVAATPTSLLISWDASSSSVSHYGITYGETGGNSPVQEFTVPGSSSTATISGLSPGVDYTITVYAYHSYDDIYYALSPSSINYRT
2800	SEQ ID NO 92 (designed binder) VSSVPTKLEVVAATPTSLLISWDASSSSVSHYEITYGETGGNSPVQEFTVPGSSSTATISGLSPGVDYTITVTAYDSYYDIYIAYSPSSINYRT

target: human small ubiquitin-like modifier 1 (human) (UniProt P63165); assay: ratio of the apparent affinity for hSUMO1 to that for ySUMO in the titration phage ELISA of FIGS. 25A and 26A; group Low Specificity (0-10)

Specificity Factor	Binder
4.4	hS1MB-12 (designed binder) VSSVPTKLEVVAATPTSLLISWDASSSSVSYYEITYGETGGNSPVQEFTVPGSSSTATISGLSPGVDYTITVFAYHSDDDLYYAFSPSSINYRT
0.7	hS1MB-21 (designed binder) VSSVPTKLEVVAATPTSLLISWDASSSSVSHYGITYGETGGNSPVQEFTVPGSSSTATISGLSPGVDYTITVYAYYSYHDIFYALSPSSINYRT
0.6	hS1MB-22 (designed binder) VSSVPTKLEVVAATPTSLLISWDASSSSVSHYAITYGETGGNSPVQEFTVPGSSSTATISGLSPGVDYTITVYAFYSYYDIFYSDSPSSINYRT
8	hS1MB-19 (designed binder) VSSVPTKLEVVAATPTSLLISWDASSSSVSHYGITYGETGGNSPVQEFTVPGSSSTATISGLSPGVDYTITVYAYYSYDDIFVAVSPSSINYRT
2.9	hS1MB-15 (designed binder) VSSVPTKLEVVAATPTSLLISWDASSSSVSYYDITYGETGGNSPVQEFTVPGSSSTATISGLSPGVDYTITVYAYYSYDDIYFADSPSSINYRT
2.6	hS1MB-14 (designed binder) VSSVPTKLEVVAATPTSLLISWDASSSSVSHYHITYGETGGNSPVQEFTVPGSSSTATISGLSPGVDYTITVYAYYSYNDIFFADSPSSINYRT
1.4	hS1MB-13 (designed binder) VSSVPTKLEVVAATPTSLLISWDASSSSVSYYAITYGETGGNSPVQEFTVPGSSSTATISGLSPGVDYTITVYAYHSYDDIYFAFSPSSINYRT

target: human small ubiquitin-like modifier 1 (human) (UniProt P63165); assay: SPR

Kd [nM]	fold discrimination in affinity (ySUMO over hSUMOs) [fold]	Binder
54000	> 600	ySMB-1 (designed binder) VSSVPTKLEVVAATPTSLLISWDASSSSVSYYRITYGETGGNSPVQEFTVPGSSSTATISGLSPGVDYTITVYAYYSYYDLYYSYSPSSINYRT
